{"source": "the PETadex activity labels (doi:10.1007/s00253-011-3781-6)", "proteins": {"B1": {"name": "unnamed (protein)", "chain": "MSVTTPRRETSLLSRALRATAAAATAVVATVALAAPAQAANPYERGPNPTESMLEARSGPFSVSEERASRFGADGFGGGTIYYPRENNTYGAIAISPGYTGTQSSIAWLGERIASHGFVVIAIDTNTTLDQPDSRARQLNAALDYMLTDASSAVRNRIDASRLAVMGHSMGGGGTLRLASQRPDLKAAIPLTPWHLNKSWRDITVPTLIIGAEYDTIASVTLHSKPFYNSIPSPTDKAYLELDGASHFAPNITNKTIGMYSVAWLKRFVDEDTRYTQFLCPGPRTGLLSDVEEYRSTCPF"}}, "conditions_in_all_cases": "pH 6; 37 °C", "key": {"p-NP-C2": {"substrate": "p-NP-C2"}, "p-NP-C4": {"substrate": "p-NP-C4"}, "p-NP-C6": {"substrate": "p-NP-C6"}, "p-NP-C8": {"substrate": "p-NP-C8"}}}
{"protein": "B1", "values": [{"measurement": "Km", "setting": "p-NP-C2", "result": 3.22, "unit": "mM"}, {"measurement": "kcat", "setting": "p-NP-C2", "result": 2.06, "unit": "s⁻¹"}, {"measurement": "kcat/Km", "setting": "p-NP-C2", "result": 640, "unit": "s⁻¹ M⁻¹"}, {"measurement": "Km", "setting": "p-NP-C4", "result": 3.41, "unit": "mM"}, {"measurement": "kcat", "setting": "p-NP-C4", "result": 4.48, "unit": "s⁻¹"}, {"measurement": "kcat/Km", "setting": "p-NP-C4", "result": 1310, "unit": "s⁻¹ M⁻¹"}, {"measurement": "Km", "setting": "p-NP-C6", "result": 2.37, "unit": "mM"}, {"measurement": "kcat", "setting": "p-NP-C6", "result": 3.28, "unit": "s⁻¹"}, {"measurement": "kcat/Km", "setting": "p-NP-C6", "result": 1380, "unit": "s⁻¹ M⁻¹"}, {"measurement": "Km", "setting": "p-NP-C8", "result": 1.87, "unit": "mM"}, {"measurement": "kcat", "setting": "p-NP-C8", "result": 2.45, "unit": "s⁻¹"}, {"measurement": "kcat/Km", "setting": "p-NP-C8", "result": 1310, "unit": "s⁻¹ M⁻¹"}]}
